Key:
Conditions in all cases: protein: recombinant; tags: N-terminal His; chain copies: 2; label: 32P; blunt
UvrA WT = target: T1, UvrA WT (Escherichia coli, UniProt P0A698 1-940); assay: EMSA; 2 mM ATP; EMSA, 1 nM 32P-labeled 50 bp duplex, 2 mM ATP, 20 min at 37°C; buffer, salt and pH not given in the material
T1 sequence: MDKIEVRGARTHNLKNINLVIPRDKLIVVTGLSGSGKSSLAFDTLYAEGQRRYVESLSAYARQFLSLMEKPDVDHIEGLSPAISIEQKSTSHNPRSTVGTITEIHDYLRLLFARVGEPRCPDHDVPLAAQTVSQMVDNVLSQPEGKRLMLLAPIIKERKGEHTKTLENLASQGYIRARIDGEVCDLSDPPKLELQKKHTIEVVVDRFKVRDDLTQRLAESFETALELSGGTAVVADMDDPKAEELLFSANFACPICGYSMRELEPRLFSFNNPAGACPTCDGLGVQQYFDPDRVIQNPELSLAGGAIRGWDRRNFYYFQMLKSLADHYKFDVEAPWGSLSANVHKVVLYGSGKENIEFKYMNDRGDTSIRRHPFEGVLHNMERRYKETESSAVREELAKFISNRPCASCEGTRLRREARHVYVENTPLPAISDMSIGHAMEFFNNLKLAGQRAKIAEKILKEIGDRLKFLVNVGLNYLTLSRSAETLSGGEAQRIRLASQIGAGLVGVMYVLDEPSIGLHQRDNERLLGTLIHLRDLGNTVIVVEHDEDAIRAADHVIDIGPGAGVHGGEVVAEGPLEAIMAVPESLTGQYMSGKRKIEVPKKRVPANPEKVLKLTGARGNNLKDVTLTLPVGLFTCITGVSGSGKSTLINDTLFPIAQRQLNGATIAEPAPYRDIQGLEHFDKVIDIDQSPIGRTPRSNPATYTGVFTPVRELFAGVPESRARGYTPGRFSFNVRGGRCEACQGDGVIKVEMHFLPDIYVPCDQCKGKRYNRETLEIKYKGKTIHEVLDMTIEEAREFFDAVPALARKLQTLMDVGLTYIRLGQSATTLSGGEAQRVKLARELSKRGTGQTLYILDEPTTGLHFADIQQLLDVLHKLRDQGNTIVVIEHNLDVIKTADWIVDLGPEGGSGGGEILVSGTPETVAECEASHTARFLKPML

UvrA K37A = target: T2, UvrA K37A (Escherichia coli, UniProt P0A698 1-940, K37A); assay: EMSA; 2 mM ATP; binding detected at <300 nM UvrA; EMSA, 1 nM 32P-labeled 50 bp duplex, 2 mM ATP, 20 min at 37°C; buffer, salt and pH not given in the material
T2 sequence: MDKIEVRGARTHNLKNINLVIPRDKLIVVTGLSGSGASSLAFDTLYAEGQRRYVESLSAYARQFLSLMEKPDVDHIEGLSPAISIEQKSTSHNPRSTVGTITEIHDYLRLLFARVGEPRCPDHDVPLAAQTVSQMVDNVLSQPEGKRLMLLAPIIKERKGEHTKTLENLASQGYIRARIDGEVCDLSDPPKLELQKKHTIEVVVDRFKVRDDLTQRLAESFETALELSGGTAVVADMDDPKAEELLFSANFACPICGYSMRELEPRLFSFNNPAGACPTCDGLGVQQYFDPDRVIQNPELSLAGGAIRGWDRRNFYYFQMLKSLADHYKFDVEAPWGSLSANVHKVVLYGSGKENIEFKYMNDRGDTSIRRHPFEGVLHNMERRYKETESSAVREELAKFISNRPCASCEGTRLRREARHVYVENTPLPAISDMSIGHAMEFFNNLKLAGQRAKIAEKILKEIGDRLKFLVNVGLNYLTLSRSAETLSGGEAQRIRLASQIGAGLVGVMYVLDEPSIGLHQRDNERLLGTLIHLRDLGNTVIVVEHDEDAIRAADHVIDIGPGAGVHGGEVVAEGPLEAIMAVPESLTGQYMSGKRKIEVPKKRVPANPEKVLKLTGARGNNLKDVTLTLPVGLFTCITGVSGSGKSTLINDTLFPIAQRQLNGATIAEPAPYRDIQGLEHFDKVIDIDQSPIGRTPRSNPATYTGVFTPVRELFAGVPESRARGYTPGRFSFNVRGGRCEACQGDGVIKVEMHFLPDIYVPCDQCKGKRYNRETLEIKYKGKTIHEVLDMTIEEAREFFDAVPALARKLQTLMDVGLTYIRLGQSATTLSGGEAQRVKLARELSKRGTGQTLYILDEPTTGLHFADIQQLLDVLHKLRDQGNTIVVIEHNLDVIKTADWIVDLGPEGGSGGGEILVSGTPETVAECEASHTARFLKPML

UvrA G502D = target: T3, UvrA G502D (Escherichia coli, UniProt P0A698 1-940, G502D); assay: as above
T3 sequence: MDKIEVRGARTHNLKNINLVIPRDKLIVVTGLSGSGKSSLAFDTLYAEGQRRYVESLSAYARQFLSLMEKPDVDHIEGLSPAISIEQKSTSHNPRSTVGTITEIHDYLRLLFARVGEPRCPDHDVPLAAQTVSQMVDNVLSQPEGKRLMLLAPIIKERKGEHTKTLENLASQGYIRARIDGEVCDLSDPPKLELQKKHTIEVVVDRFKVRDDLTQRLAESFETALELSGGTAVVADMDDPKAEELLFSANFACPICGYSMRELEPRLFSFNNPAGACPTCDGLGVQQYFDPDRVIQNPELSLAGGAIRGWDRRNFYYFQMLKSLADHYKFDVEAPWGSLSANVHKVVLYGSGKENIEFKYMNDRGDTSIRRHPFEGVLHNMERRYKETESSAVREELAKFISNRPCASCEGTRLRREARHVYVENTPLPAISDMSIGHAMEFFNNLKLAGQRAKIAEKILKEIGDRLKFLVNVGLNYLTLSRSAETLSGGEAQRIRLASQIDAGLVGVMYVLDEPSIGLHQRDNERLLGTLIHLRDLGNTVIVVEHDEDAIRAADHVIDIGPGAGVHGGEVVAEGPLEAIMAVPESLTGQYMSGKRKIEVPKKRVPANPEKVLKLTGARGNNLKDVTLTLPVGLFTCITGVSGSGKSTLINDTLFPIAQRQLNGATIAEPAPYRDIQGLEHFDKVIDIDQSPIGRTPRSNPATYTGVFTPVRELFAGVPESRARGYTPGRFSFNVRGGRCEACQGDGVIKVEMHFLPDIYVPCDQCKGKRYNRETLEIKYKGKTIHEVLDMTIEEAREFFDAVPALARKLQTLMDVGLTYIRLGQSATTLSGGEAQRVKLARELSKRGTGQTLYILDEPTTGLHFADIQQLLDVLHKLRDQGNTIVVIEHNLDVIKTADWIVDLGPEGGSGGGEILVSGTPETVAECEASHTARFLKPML

[1] = target: T4, UvrA R712A R722A R724A R730A (Escherichia coli, UniProt P0A698 1-940, R712A;R722A;R724A;R730A); assay: EMSA; 2 mM ATP; no binding detected at 800 nM UvrA; EMSA, 1 nM 32P-labeled 50 bp duplex, 2 mM ATP, 20 min at 37°C; buffer, salt and pH not given in the material
T4 sequence: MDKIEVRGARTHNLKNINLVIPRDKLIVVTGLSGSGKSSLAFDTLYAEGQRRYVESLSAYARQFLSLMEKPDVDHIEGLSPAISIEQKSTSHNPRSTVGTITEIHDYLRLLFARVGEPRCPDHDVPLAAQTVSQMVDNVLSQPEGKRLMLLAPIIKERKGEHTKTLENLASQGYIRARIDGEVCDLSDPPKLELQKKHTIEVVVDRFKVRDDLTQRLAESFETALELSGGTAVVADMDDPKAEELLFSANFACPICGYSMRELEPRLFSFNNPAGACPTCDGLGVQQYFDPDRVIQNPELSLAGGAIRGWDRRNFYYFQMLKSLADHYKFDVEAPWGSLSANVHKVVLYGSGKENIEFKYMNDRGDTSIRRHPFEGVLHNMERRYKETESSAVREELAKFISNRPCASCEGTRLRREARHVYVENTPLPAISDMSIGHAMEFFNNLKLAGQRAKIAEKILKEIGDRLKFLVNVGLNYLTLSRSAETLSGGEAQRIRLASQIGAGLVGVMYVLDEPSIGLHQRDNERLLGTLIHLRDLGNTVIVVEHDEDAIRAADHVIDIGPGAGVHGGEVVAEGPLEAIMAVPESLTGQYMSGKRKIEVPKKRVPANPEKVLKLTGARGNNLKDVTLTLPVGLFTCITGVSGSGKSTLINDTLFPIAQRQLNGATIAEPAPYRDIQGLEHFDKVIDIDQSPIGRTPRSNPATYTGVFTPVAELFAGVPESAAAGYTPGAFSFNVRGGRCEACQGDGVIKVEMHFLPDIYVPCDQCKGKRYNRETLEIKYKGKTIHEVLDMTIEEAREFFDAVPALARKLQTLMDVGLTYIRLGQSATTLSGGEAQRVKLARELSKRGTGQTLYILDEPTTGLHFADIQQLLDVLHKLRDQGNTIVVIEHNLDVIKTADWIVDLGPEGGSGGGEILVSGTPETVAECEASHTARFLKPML

B1: 50 bp duplex with single FldT adduct (dsDNA)
DNA 1: CTAGGATCGGATAGCGCATGACAGTGACTGGATCGACAGCGTCGTATGAG
DNA 2: CTCATACGACGCTGTCGATCCAGTCACTGTCATGCGCTATCCGATCCTAG
modifications: fluorescein-dT (FldT) at position 29 of strand 1
With B1 the Kd (UvrA WT) was 5.6 ± 1 nM, the binding result (UvrA K37A) was “binds” and the binding result (UvrA G502D) was “binds”. B1: no binding [1].

Reference: paper PMC3025350, “Regulation and Rate Enhancement during Transcription-Coupled DNA Repair”
